According to patent US20240200091A1, “USE OF PROTOPORPHYRINOGEN OXIDASE” (BEIJING DABEINONG BIOTECHNOLOGY CO., LTD., priority 2021, published 2024):

What was measured:
Format in all cases: in vivo
[1] = test system: Arabidopsis thaliana T1 plants; assay: flumioxazin tolerance of transgenic Arabidopsis thaliana T1 plants (spray, grade of pesticide damage); conditions: 7 DAT, number of plants of 24 per genotype, grades
Procedure, shortened: (§1)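 Graded 0–3 by injured-to-total leaf area 7 days after spraying, with grades 0–1 rated highly resistant. Plants (24 per genotype, 18 days old) received water or 1× and 4× field rates (sulfentrazone 1× and 2×, 450/900 g ai/ha) of each herbicide.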

[2] = test system: Arabidopsis thaliana T1 plants; assay: oxyfluorfen tolerance of transgenic Arabidopsis thaliana T1 plants (spray, grade of pesticide damage); conditions: 7 DAT, number of plants of 24 per genotype, grades
Procedure, shortened: as §1

[3] = test system: transgenic soybean plants; assay: saflufenacil tolerance of transgenic soybean plants (spray, grade of pesticide damage); design: key to damage levels rated at grade: grade 0 means that the growth status of plants is essentially consistent with those sprayed with the blank solvent (water); grade 1 means that the average of the damage levels of plants is less than 10%; grade 2 means that the average of the damage levels of plants is greater than 100%; grade 3 means that the average of the damage levels of plants is 100%; conditions: for The grade of pesticide damage/plant: grade 0 / The grade of pesticide damage/plant: grade 1 / The grade of pesticide damage/plant: grade 2 / The grade of pesticide damage/plant: grade 3: 7 DAT, number of plants of 16 per genotype, grades
[4] = test system: Arabidopsis thaliana T1 plants; assay: saflufenacil tolerance of transgenic Arabidopsis thaliana T1 plants (spray, grade of pesticide damage); conditions: 7 DAT, number of plants of 24 per genotype, grades
Procedure, shortened: as §1

[5] = test system: Arabidopsis thaliana T1 plants; assay: sulfentrazone tolerance of transgenic Arabidopsis thaliana T1 plants (spray, grade of pesticide damage); conditions: 7 DAT, number of plants of 24 per genotype, grades
Procedure, shortened: as §1

[6] = test system: transgenic soybean plants; assay: flumioxazin tolerance of transgenic soybean plants (spray, grade of pesticide damage); conditions: for The grade of pesticide damage/plant: grade 0 / The grade of pesticide damage/plant: grade 1 / The grade of pesticide damage/plant: grade 2 / The grade of pesticide damage/plant: grade 3: 7 DAT, number of plants of 16 per genotype, grades
[7] = test system: transgenic soybean plants; assay: oxyfluorfen tolerance of transgenic soybean plants (spray, grade of pesticide damage); conditions: for The grade of pesticide damage/plant: grade 0 / The grade of pesticide damage/plant: grade 1 / The grade of pesticide damage/plant: grade 2 / The grade of pesticide damage/plant: grade 3: 7 DAT, number of plants of 16 per genotype, grades; for tolerance to oxyfluorfen: soybean

B1: PPO6A: nucleotide sequence encoding microbial protoporphyrinogen oxidase PPO6 (SEQ ID NO:6), Arabidopsis thaliana/soybean common codon usage bias (nucleic acid)
DNA: ATGTCTTCTCCTAATGGGAAGTATTTGATGCTTTACAGTACCACCGACGGTCACACAAAAACCATTATGGATACAATGGCTAAACATATAATGGAAGAAGCAAAAGTACAATGTGATGTTGTGGACATGAGAGATGGAGACAAATACGAGTTAGCTGCTTATGAGAAGGTGATGCTAGGAGCTTCTATTAGATATGGATTCTTCAGCCGCACTCTTCATACATATACCACTCATCATGTTGATGAACTTAACTCAATGCCTTCCGCTTTCTTTGGAGTCAATCTCACTGCTCGTAAAACTTCAAAGAACACTGCAATGACTAATGCATACACAAGAAAGTTTCTGGATCAATCCATGTGGGTTCCTCAATTATCTGGCGTTTTTGCTGGTGCTTTGTGGTATCCTAGGTACAATTTCTTTGACAGGGTTATGATTCAGTTCATCATGAAGGTAACTGGTGGTGAAACAAACACAACGAAAGAGATAGTTTACACTGATTGGGATGCTGTTCACAAATTTGCAACAGATTTTGTGCAGCTACCAGCCACGGCGATACCCCGGAGCAAGCCGGCGACGTCGGTCCCACCAGCTAGTGTGGCCAACTATGATAATGGGGCACGAGTAGCGCTTGTGGTTGTGGGAATCTCAGCAGCCATCATCTTTGGCCGTCGATTGATTCTCGCAAAGAGATTCTGA
modifications: The nucleotide sequence of PPO6A
- The grade of pesticide damage/plant: grade 0 ([1]; flumioxazin 60 g ai/ha (1×)): 24 plant
- The grade of pesticide damage/plant: grade 1 ([1]; flumioxazin 60 g ai/ha (1×)): 0 plant
- The grade of pesticide damage/plant: grade 2 ([1]; flumioxazin 60 g ai/ha (1×)): 0 plant
- The grade of pesticide damage/plant: grade 3 ([1]; flumioxazin 60 g ai/ha (1×)): 0 plant
- The grade of pesticide damage/plant: grade 0 ([1]; flumioxazin 240 g ai/ha (4×)): 22 plant
- The grade of pesticide damage/plant: grade 1 ([1]; flumioxazin 240 g ai/ha (4×)): 2 plant
- The grade of pesticide damage/plant: grade 2 ([1]; flumioxazin 240 g ai/ha (4×)): 0 plant
- The grade of pesticide damage/plant: grade 3 ([1]; flumioxazin 240 g ai/ha (4×)): 0 plant
- The grade of pesticide damage/plant: grade 0 ([2]; oxyfluorfen 180 g ai/ha (1×)): 24 plant
- The grade of pesticide damage/plant: grade 1 ([2]; oxyfluorfen 180 g ai/ha (1×)): 0 plant
- The grade of pesticide damage/plant: grade 2 ([2]; oxyfluorfen 180 g ai/ha (1×)): 0 plant
- The grade of pesticide damage/plant: grade 3 ([2]; oxyfluorfen 180 g ai/ha (1×)): 0 plant
- The grade of pesticide damage/plant: grade 0 ([2]; oxyfluorfen 720 g ai/ha (4×)): 20 plant
- The grade of pesticide damage/plant: grade 1 ([2]; oxyfluorfen 720 g ai/ha (4×)): 4 plant
- The grade of pesticide damage/plant: grade 2 ([2]; oxyfluorfen 720 g ai/ha (4×)): 0 plant
- The grade of pesticide damage/plant: grade 3 ([2]; oxyfluorfen 720 g ai/ha (4×)): 0 plant
- The grade of pesticide damage/plant: grade 0 ([3]; saflufenacil 50 g ai/ha (2×)): 16 plant
- The grade of pesticide damage/plant: grade 1 ([3]; saflufenacil 50 g ai/ha (2×)): 0 plant
- The grade of pesticide damage/plant: grade 2 ([3]; saflufenacil 50 g ai/ha (2×)): 0 plant
- The grade of pesticide damage/plant: grade 3 ([3]; saflufenacil 50 g ai/ha (2×)): 0 plant
- The grade of pesticide damage/plant: grade 0 ([3]; saflufenacil 100 g ai/ha (4×)): 16 plant
- The grade of pesticide damage/plant: grade 1 ([3]; saflufenacil 100 g ai/ha (4×)): 0 plant
- The grade of pesticide damage/plant: grade 2 ([3]; saflufenacil 100 g ai/ha (4×)): 0 plant
- The grade of pesticide damage/plant: grade 3 ([3]; saflufenacil 100 g ai/ha (4×)): 0 plant
- tolerance to saflufenacil ([3]; soybean, saflufenacil at four-fold field concentration (100 g ai/ha)): high-resistant tolerance
- damage levels rated at grade ([3]; soybean, saflufenacil at two-fold field concentration (50 g ai/ha)): 0
- tolerance to saflufenacil ([3]; soybean, saflufenacil, compared with the control vector and CK): different extents of tolerance
- The grade of pesticide damage/plant: grade 0 ([4]; saflufenacil 25 g ai/ha (1×)): 24 plant
- The grade of pesticide damage/plant: grade 1 ([4]; saflufenacil 25 g ai/ha (1×)): 0 plant
- The grade of pesticide damage/plant: grade 2 ([4]; saflufenacil 25 g ai/ha (1×)): 0 plant
- The grade of pesticide damage/plant: grade 3 ([4]; saflufenacil 25 g ai/ha (1×)): 0 plant
- The grade of pesticide damage/plant: grade 0 ([4]; saflufenacil 100 g ai/ha (4×)): 2 plant
- The grade of pesticide damage/plant: grade 1 ([4]; saflufenacil 100 g ai/ha (4×)): 22 plant
- The grade of pesticide damage/plant: grade 2 ([4]; saflufenacil 100 g ai/ha (4×)): 0 plant
- The grade of pesticide damage/plant: grade 3 ([4]; saflufenacil 100 g ai/ha (4×)): 0 plant
- The grade of pesticide: grade 0 ([5]; sulfentrazone 450 g ai/ha (1×)): 24
- The grade of pesticide: grade 1 ([5]; sulfentrazone 450 g ai/ha (1×)): 0
- The grade of pesticide: grade 2 ([5]; sulfentrazone 450 g ai/ha (1×)): 0
- The grade of pesticide: grade 3 ([5]; sulfentrazone 450 g ai/ha (1×)): 0
- The grade of pesticide: grade 0 ([5]; sulfentrazone 900 g ai/ha (2×)): 20
- The grade of pesticide: grade 1 ([5]; sulfentrazone 900 g ai/ha (2×)): 4
- The grade of pesticide: grade 2 ([5]; sulfentrazone 900 g ai/ha (2×)): 0
- The grade of pesticide: grade 3 ([5]; sulfentrazone 900 g ai/ha (2×)): 0
- The grade of pesticide damage/plant: grade 0 ([6]; flumioxazin 120 g ai/ha (2×)): 16 plant
- The grade of pesticide damage/plant: grade 1 ([6]; flumioxazin 120 g ai/ha (2×)): 0 plant
- The grade of pesticide damage/plant: grade 2 ([6]; flumioxazin 120 g ai/ha (2×)): 0 plant
- The grade of pesticide damage/plant: grade 3 ([6]; flumioxazin 120 g ai/ha (2×)): 0 plant
- The grade of pesticide damage/plant: grade 0 ([6]; flumioxazin 240 g ai/ha (4×)): 16 plant
- The grade of pesticide damage/plant: grade 1 ([6]; flumioxazin 240 g ai/ha (4×)): 0 plant
- The grade of pesticide damage/plant: grade 2 ([6]; flumioxazin 240 g ai/ha (4×)): 0 plant
- The grade of pesticide damage/plant: grade 3 ([6]; flumioxazin 240 g ai/ha (4×)): 0 plant
- tolerance to flumioxazin ([6]; soybean, flumioxazin at different concentrations (120 and 240 g ai/ha)): high-resistant tolerance
- The grade of pesticide damage/plant: grade 0 ([7]; oxyfluorfen 360 g ai/ha (2×)): 16 plant
- The grade of pesticide damage/plant: grade 1 ([7]; oxyfluorfen 360 g ai/ha (2×)): 0 plant
- The grade of pesticide damage/plant: grade 2 ([7]; oxyfluorfen 360 g ai/ha (2×)): 0 plant
- The grade of pesticide damage/plant: grade 3 ([7]; oxyfluorfen 360 g ai/ha (2×)): 0 plant
- The grade of pesticide damage/plant: grade 0 ([7]; oxyfluorfen 720 g ai/ha (4×)): 16 plant
- The grade of pesticide damage/plant: grade 1 ([7]; oxyfluorfen 720 g ai/ha (4×)): 0 plant
- The grade of pesticide damage/plant: grade 2 ([7]; oxyfluorfen 720 g ai/ha (4×)): 0 plant
- The grade of pesticide damage/plant: grade 3 ([7]; oxyfluorfen 720 g ai/ha (4×)): 0 plant
- tolerance to oxyfluorfen ([7]; oxyfluorfen at four-fold field concentration (720 g ai/ha)): high-resistant tolerance
- tolerance to oxyfluorfen ([7]; oxyfluorfen at two-fold field concentration (360 g ai/ha)): high-resistant tolerance
